Measured values taken from US20220096654A1, “PYRROLOBENZODIAZEPINE-ANTIBODY CONJUGATES AND USES THEREOF” (ADC THERAPEUTICS SA, priority 2020, published 2022).

What was measured:
fLuc+ OCIM1 cells = test: AML model in NSG mice, treatment the day after cell injection; assay type: in vivo; details: for tumor (bioluminescence) signal: 1 mg/kg or 5 mg/kg i.v. the day after OCIM1 injection; for mice developing tumor / tumor signal: 1 mg/kg or 5 mg/kg i.v., cohorts of 5 mice
Description: NSG mice were transplanted with 7.5×10^6 luciferase expressing fLuc+ OCIM1 cells i.v. On the following day, unconjugated rat IgG2b antibodies or ADCs were injected i.v. via a tail vein at a dose of 1 mg/kg or 5 mg/kg. Mice were regularly monitored for signs of morbidity for the duration of the experiment. For imaging, mice were injected intraperitoneally with 200 μl of 15 mg/mL D-luciferin (Regis Technologies) in PBS. Mice were subsequently anesthetized with 4% isoflurane and maintained at 2% isoflurane. Ten minutes after injection of D-luciferin, mice were placed with anterior side up inside a IVIS Lumina III (PerkinElmer). A sub-saturating image was captured using the auto-exposure setting in the Living Image software (v4.5). Quantification and preparation of images was also carried out using the same software.

human CD34+ cells = test: Ex vivo treatment of CD34+ cells with Mab or ADC prior to engraftment in NSG mice; details: CD34+ cells treated at 1 nM and 0.1 nM for 4 hours before transplantation; week 8
Description: Adult female NSG mice were sublethally irradiated with 2.5 Gy on the day before transplantation. Cryopreserved purified CD34+ cells from mobilized peripheral blood from a normal donor were thawed and cultured in complete medium (RPMI 1640 plus 10% fetal calf serum) in presence of Mab, ADC or medium alone for 4 hours. Cells were washed in phosphate buffered saline (PBS) and 0.5×10^6 cells in PBS were injected intravenously into the tail vein of mice. Engraftment of transplanted human cells (hCD45+) in the bone marrow of mice was determined by flow cytometry at 8 weeks after transplantation.

human CD45+ cells [1] = test: Engraftment of a second transplant of GFP+ autologous CD34+ cells in humanised NSG mice after conditioning; assay type: in vivo; details: 1 mg/kg (combination 0.5 mg/kg each); 9 weeks after GFP+ cell transplant
Description: Adult female NSG mice were sublethally irradiated with 2.5 Gy on the day before transplantation (day −1). Cryopreserved purified CD34+ cells from mobilized peripheral blood from a normal donor were thawed and 0.5×10^6 cells in PBS were injected intravenously into the tail vein of mice (day 0). Human engraftment (human CD45+ cells) in the blood of mice was assessed at week 8. Mice were assigned to treatment cohorts so that the median human CD45+ engraftment in the blood for each cohort was as similar as possible. Mice were injected with 1 mg/kg Mab or ADC or a combination of YTH MAbs (0.5 mg/kg each) or YTH ADCs (0.5 mg/kg each) intravenously via the tail vein. Mice were subsequently transplanted with lentivirally transduced green fluorescent protein (GFP) autologous CD34+ cells (Week 10). A separate cohort of sublethally irradiated (non-humanized) NSG were injected with the same batch of GFP transduced cells served as a positive control for GFP+ human cell engraftment. Nine weeks after GFP+ cell transplant, mice were culled and blood, spleen and bone marrow taken for analysis.

human CD45+ cells [2] = test: Allogeneic stem cell transplant model in humanized NSG mice, comparison of payloads; assay type: in vivo; details: 1 mg/kg; for mean % hCD45+ engraftment in the bone marrow: 8 weeks after allogeneic GFP+ cells, PBS 14.12%
Description: Adult NSG mice (Charles River Laboratories) were sublethally irradiated with 2.5 Gy in a ^137Cs irradiator. On the following day, mice were injected with 0.5×10^6 freshly thawed cryopreserved human CD34+ cells from a health donor were injected via the tail vein in 150 μL PBS using a 29 gauge MicroFine Plus insulin syringe (BD). Engraftment of human cells in the blood was assessed periodically from 6 weeks after transplantation. At 10 weeks post-transplant, humanized NSG mice were assigned into cohorts with similar median human CD45+ cell engraftment in the blood, as determined by flow cytometry. Mice were injected with PBS or 1 mg/kg YTH24.5-B1. Sixteen 16 days after treatment, mice were transplanted with 0.5×10^6 GFP+CD34+ cells from another healthy donor. Irradiated NSG […] were also transplanted with the GFP+CD34+ from the allogeneic healthy donor as a control for engraftment of the GFP+CD34+ cells. 8 weeks after transplantation of GFP+ cells, mice were culled and blood, spleen and bone marrow taken for analysis by flow cytometry.
Experimental schedule is as previously described in example 16 but with the following modifications. Humanized NSG mice at 10 weeks post-transplant were injected with PBS or 1 mg/kg YTH24.5-B1, YTH54.12-B1, Isotype-B1, YTH24.5-B4 and Isotype-3376. Isotype-B2 and YTH24.5-B2 was given at a dose of 5 mg/kg. Transplantation of 0.5×10^6 GFP+CD34+ from an allogeneic human donor and analysis at 8 weeks post-transplant of GFP+ cells was carried out as previously described.

[3] = 1 mg/kg, NSG mice; for T %: serum ELISA
Description: Adult (non-humanized) NSG mice were injected with 1 mg/kg ADC. Three mice were used for each ADC. Samples were taken from mice at between 3 h and 168 h after injection. Serum samples were analyzed by ELISA using recombinant human CD45 (Bio-Techne). Goat anti-rat IgG (H+L) (cross absorbed) and sulfoTAG Streptavidin was used to detect the total amounts of the YTH antibodies. Anti-drug antibody was used to detect the level of conjugated antibody.

OCIM1 (CD45+) = test: Cell viability assay 72 h (PrestoBlue), OCIM1; assay type: cell-based, human; details: drug-linker B1
Description: OCIM1, Jurkat and Nalm6 cells were seeded at 0.5×10^5/mL were cultured for 72 hours in presence of Mab or ADC or medium (in triplicate wells) in wells of flat bottom 96-well plates. 293T cells were seeded at 9.3×10^3 cells per well in flat bottom 96-well plates and allowed to adhere the plate for up to 24 hours. 293T cells were subsequently cultured with Mab or ADC or medium (in triplicate wells) for 72 hours. PrestoBlue® Cell viability Reagent (Thermo Fisher Scientific) was added to each and incubated for up to 1.5 hours. Fluorescence intensity from each well was detected using a FLUOstar OPTIMA microplate reader (BMG Labtech). Data points are mean±s.d. for representative experiments.

[4] = tested on: luciferase expressing human CD45+ Jurkat cells; test: Jurkat leukaemia model in NSG mice (bioluminescence, survival); assay type: in vivo; details: 1 mg/kg; for mice remained leukaemia free: day 16
Description: Adult NSG mice were sublethally irradiated with 2 Gy on the day before injection of cells. 5×10^6 fire fly luciferase expressing Jurkat cells in PBS were injected intravenously into the tail vein of mice. On the following day PBS, MAbs or ADC were injected intravenously into the tail vein at a dose of 1 mg/kg. Mice were regularly monitored for signs of morbidity and weight loss for the duration of the experiment. For imaging, mice were injected intraperitoneally with 3 mg D-luciferin in PBS. Mice were initially anesthetized with 4% isoflurane and then maintained at 2% isoflurane. Ten minutes after injection of D-luciferin, mice were imaged inside a IVIS Lumina III (PerkinElmer). A sub-saturating image was captured using the auto-exposure setting in the Living Image software.

| Molecule | tumor (bioluminescence) signal (fLuc+ OCIM1 cells) | mice developing tumor / tumor signal (fLuc+ OCIM1 cells) | engraftment of human CD45+ cells in the bone marrow of NSG mice (human CD34+ cells) | GFP+CD34+ out of total human CD34+ cells in the bone marrow (human CD45+ cells [1]) | percentage GFP+ human CD34+ cells in the bone marrow (mean) (human CD45+ cells [2]) | mean % hCD45+ engraftment in the bone marrow (human CD45+ cells [2]) | AUC relative to YTH24.5-PBD [3] | time after injection by which below the lower limit of detection [3] | T % [3] | EC50 values, viability assay, OCIM1 (CD45+) (OCIM1 (CD45+)) | surviving mice at end of day 70 [4] | mice remained leukaemia free [4] |
| --- | --- | --- | --- | --- | --- | --- | --- | --- | --- | --- | --- | --- |
| YTH54.12-B1: rat IgG2b anti-CD45 antibody YTH54.12 conjugated to cleavable PBD drug-linker B1 (drawing 43) (conjugate) heavy: EVQLVESGGGLVQPGGSMKLSCAASGFTFSDYYMAWVRQAPKKGLEWVASMSFAGSSTYYGDSVKGRFTISRDNAKTTLYLQMNSLRSEDTATYYCARMYTTDYYLYWYFDFWGPGTMVTVSSAQTTAPSVYPLAPGCGDTTSSTVTLGCLVKGYFPEPVTVTWNSGALSSDVHTFPAVLQSGLYTLTSSVTSSTWPSQTVTCNVAHPASSTKVDKKVERRNGGIGHKCPTCPTCHKCPVPELLGGPSVFIFPPKPKDILLISQNAKVTCVVVDVSEEEPDVQFSWFVNNVEVHTAQTQPREEQYNSTFRVVSALPIQHQDWMSGKEFKCKVNNKALPSPIEKTISKPKGLVRKPQVYVMGPPTEQLTEQTVSLTCLTSGFLPNDIGVEWTSNGHIEKNYKNTEPVMDSDGSFFMYSKLNVERSRWDSRAPFVCSVVHEGLHNHHVEKSISRPPGK light: DVQMTQSPSYLAASPGESVSISCKASKSISNYLAWYQQKPGEANKILIYSGSTLQSGTPSRFSGSGSGTDFSLTIRNLEPEDFAVYYCQQYDEKPLTFGSGTKLEIKRADAAPTVSIFPPSMEQLTSGGATVVCFVNNFYPRDISVKWKIDGSEQRDGVLDSVTDQDSKDSTYSMSSTLSLTKVEYERHNLYTCEVVHKTSSSPVVKSFNRNEC | increasing tumor signal from day 18 onwards | 1 out of 5 | prevented engraftment | ~80% | 69.40% | 16.34% | ~1.5 times | ~4 days | 1.53 days | low pM range | had surviving mice | 4 of 5 |
| YTH24.5-B1: rat IgG2b anti-CD45 antibody YTH24.5 conjugated to cleavable PBD drug-linker B1 (drawing 43) (conjugate) heavy: QVNLLQSGAALVKPGASVKLSCKASSYTFTDYYIHWVKQSHGKTLEWIGYINPKSGFTNYNEKFRRKATLTVDKSTNTAYMDISRLTSEDSATYYCTRRTGVIPMDAWGQGASVTVSSAQTTAPSVYPLAPGCGDTTSSTVTLGCLVKGYFPEPVTVTWNSGALSSDVHTFPAVLQSGLYTLTSSVTSSTWPSQTVTCNVAHPASSTKVDKKVERRNGGIGHKCPTCPTCHKCPVPELLGGPSVFIFPPKPKDILLISQNAKVTCVVVDVSEEEPDVQFSWFVNNVEVHTAQTQPREEQYNSTFRVVSALPIQHQDWMSGKEFKCKVNNKALPSPIEKTISKPKGLVRKPQVYVMGPPTEQLTEQTVSLTCLTSGFLPNDIGVEWTSNGHIEKNYKNTEPVMDSDGSFFMYSKLNVERSRWDSRAPFVCSVVHEGLHNHHVEKSISRPPGK light: DVVMTQTPVSLSVSLGGQVSISCRSSQSFVSSDGNTYLNWYLQKPGQSPQLLIYKVSNRLSGVPDRFSGSGSGTDFTLKISRVEHDDLGVYYCGQASKIPLTFGSGTKLEIKRADAAPTVSIFPPSMEQLTSGGATVVCFVNNFYPRDISVKWKIDGSEQRDGVLDSVTDQDSKDSTYSMSSTLSLTKVEYERHNLYTCEVVHKTSSSPVVKSFNRNEC | Low/absent tumor signal | 1 out of 5 | prevented engraftment | ~80% | 59.13% | 16.45% | – | ~4 days | 1.49 days | low pM range | had surviving mice | 5 of 5 |
